Measured values: the supplement of paper PMC7125110
± gives the standard error. For some of these results: Variants at the floor of the assay were thinned out.

B1: glmS ribozyme (parent)
chain: AUAAAAGCGCCAGAACUACAGAAAUGUAGUUGACGAGGAGGAGGUUUAUCGAAUUUUCGGCGGAUGCCUCCAAA

How the values were obtained:
Details in all cases: with glucosamine-6-phosphate
[1] = variants of: B1; assay: kcat; higher = faster cleavage; RNA array
Procedure, shortened: (§1)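 E. coli RNA polymerase transcribed barcoded ribozyme variants in situ on sequenced MiSeq chips, which were tracked via a hybridised Cy3 probe at 37 °C. Tiles were imaged over ~14 h after glucosamine-6-phosphate (40 μM to 10 mM) in HEPES/KCl/Mg(OAc)2 buffer was flowed in. Normalised per-tile medians were fit to one- or two-exponential decays for kobs, and kcat and KM came from weighted Michaelis–Menten fits.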

[2] = variants of: B1; assay: self-cleavage kobs at 640 uM GlcN6P; higher = faster cleavage; RNA array
Procedure, shortened: as §1

[3] = variants of: B1; assay: self-cleavage kobs at 2500 uM GlcN6P; higher = faster cleavage; RNA array
Procedure, shortened: as §1

[4] = variants of: B1; assay: self-cleavage kobs at 10000 uM GlcN6P; higher = faster cleavage; RNA array
Procedure, shortened: as §1

[5] = variants of: B1; assay: KM; higher = weaker cofactor use; RNA array
Procedure, shortened: as §1

[6] = variants of: B1; assay: self-cleavage kobs at 40 uM GlcN6P; higher = faster cleavage; RNA array
Procedure, shortened: as §1

[7] = variants of: B1; assay: self-cleavage kobs at 160 uM GlcN6P; higher = faster cleavage; RNA array
Procedure, shortened: as §1

Row | Variant | kcat [1] | self-cleavage kobs at 640 uM GlcN6P [2] | self-cleavage kobs at 2500 uM GlcN6P [3] | self-cleavage kobs at 10000 uM GlcN6P [4] | KM [5] | self-cleavage kobs at 40 uM GlcN6P [6] | self-cleavage kobs at 160 uM GlcN6P [7]
1 | U31A A48C | 0.000149 ± 3.3e-05 s⁻¹ | 4.87e-05 ± 1.3e-05 s⁻¹ | 7.42e-05 ± 1.5e-05 s⁻¹ | 0.00014 ± 2.4e-05 s⁻¹ | – | – | –
2 | G29U C61G | 3.41e-05 ± 1.3e-05 s⁻¹ | – | – | < 1e-05 s⁻¹ | – | – | –
3 | U30A C58A | 0.000164 ± 5e-05 s⁻¹ | – | 9.07e-05 ± 2.9e-05 s⁻¹ | 0.000114 ± 2.4e-05 s⁻¹ | – | – | –
4 | U31A G59A | 0.000128 ± 1.5e-05 s⁻¹ | 2.94e-05 ± 1.4e-05 s⁻¹ | 5.49e-05 ± 1.7e-05 s⁻¹ | 0.000104 ± 2.3e-05 s⁻¹ | 2710 ± 740 µM | – | –
5 | U30G A42U C67G | 0.00016 ± 2.9e-05 s⁻¹ | 8.82e-05 ± 2.3e-05 s⁻¹ | 0.000107 ± 2.9e-05 s⁻¹ | 0.000167 ± 4.5e-05 s⁻¹ | – | – | –
6 | G29C U55C | 0.00285 ± 0.001 s⁻¹ | 0.000561 ± 0.0001 s⁻¹ | 0.00116 ± 0.00023 s⁻¹ | 0.00205 ± 0.00062 s⁻¹ | 3510 ± 1600 µM | 5.28e-05 ± 1.7e-05 s⁻¹ | 0.00011 ± 1.7e-05 s⁻¹
7 | U30C G32C | 0.000399 ± 5.8e-05 s⁻¹ | 5.99e-05 ± 1.9e-05 s⁻¹ | 0.000157 ± 3e-05 s⁻¹ | 0.0003 ± 3.4e-05 s⁻¹ | 3500 ± 1100 µM | – | –
8 | U30C G32U | 0.000492 ± 0.00011 s⁻¹ | 9.97e-05 ± 1.7e-05 s⁻¹ | 0.000183 ± 2.9e-05 s⁻¹ | 0.000403 ± 5.7e-05 s⁻¹ | 3230 ± 1300 µM | – | –
9 | U30G A53U | 0.00761 ± 0.0027 s⁻¹ | 0.0019 ± 0.00032 s⁻¹ | 0.00357 ± 0.0007 s⁻¹ | 0.00788 ± 0.0011 s⁻¹ | – | 0.000261 ± 3.2e-05 s⁻¹ | 0.000465 ± 0.00011 s⁻¹
10 | U30G A33C | 4.15e-05 ± 6e-07 s⁻¹ | – | – | 3.4e-05 ± 8.1e-06 s⁻¹ | 2230 ± 140 µM | – | –
11 | U31A A39C | 0.00192 ± 0.00067 s⁻¹ | 0.000525 ± 4.9e-05 s⁻¹ | 0.000973 ± 0.00011 s⁻¹ | 0.00166 ± 0.0003 s⁻¹ | 2120 ± 1000 µM | 5.43e-05 ± 7.8e-06 s⁻¹ | 0.000105 ± 1.4e-05 s⁻¹
12 | U30A C70G | 8.36e-05 ± 9.7e-06 s⁻¹ | 6.45e-05 ± 1.5e-05 s⁻¹ | 0.000108 ± 2.6e-05 s⁻¹ | 8.03e-05 ± 1.3e-05 s⁻¹ | – | – | 6.81e-05 ± 1.8e-05 s⁻¹
13 | U30A U69A | 5.09e-05 ± 2.2e-05 s⁻¹ | – | 9.65e-05 ± 1.8e-05 s⁻¹ | 3.22e-05 ± 1.1e-05 s⁻¹ | – | – | 5.73e-05 ± 2.4e-05 s⁻¹
14 | U31A U45C | 0.00168 ± 0.00049 s⁻¹ | 0.000288 ± 8.9e-05 s⁻¹ | 0.000998 ± 0.00023 s⁻¹ | 0.00116 ± 0.00024 s⁻¹ | 3380 ± 1600 µM | – | –
15 | U31A U45G | 0.0028 ± 0.00084 s⁻¹ | 0.000882 ± 0.00014 s⁻¹ | 0.00203 ± 0.00033 s⁻¹ | 0.00194 ± 0.00049 s⁻¹ | 1730 ± 710 µM | 7.39e-05 ± 1.2e-05 s⁻¹ | 0.000168 ± 4e-05 s⁻¹
16 | U30G A39C | 0.00157 ± 0.00013 s⁻¹ | 0.000396 ± 3.6e-05 s⁻¹ | 0.000787 ± 7.3e-05 s⁻¹ | 0.00139 ± 0.00011 s⁻¹ | 2010 ± 270 µM | 3.28e-05 ± 5.7e-06 s⁻¹ | 0.000114 ± 1.6e-05 s⁻¹
17 | U30G G32A U49G | 6.41e-05 ± 1.8e-05 s⁻¹ | – | 6.89e-05 ± 2.1e-05 s⁻¹ | 5.26e-05 ± 1.5e-05 s⁻¹ | – | – | –

Row | Variant | kcat [1] | self-cleavage kobs at 640 uM GlcN6P [2] | self-cleavage kobs at 2500 uM GlcN6P [3] | self-cleavage kobs at 10000 uM GlcN6P [4] | KM [5] | self-cleavage kobs at 40 uM GlcN6P [6] | self-cleavage kobs at 160 uM GlcN6P [7]
18 | U31A C50A G51U A53G | < 1e-05 s⁻¹ | – | – | – | – | – | < 1e-05 s⁻¹
19 | U30G G60A | 1.25e-05 ± 1.8e-06 s⁻¹ | – | – | – | – | < 1e-05 s⁻¹ | < 1e-05 s⁻¹
20 | U30A C67A | 0.00161 ± 0.00066 s⁻¹ | 0.000231 ± 4.7e-05 s⁻¹ | 0.00102 ± 0.00018 s⁻¹ | 0.00131 ± 0.0002 s⁻¹ | – | 4.92e-05 ± 9.2e-06 s⁻¹ | 0.00014 ± 3.7e-05 s⁻¹
21 | U30A C58G G59A C70G | 2.1e-05 ± 2.6e-06 s⁻¹ | – | – | – | – | – | –
22 | U31A C58G | 0.000589 ± 0.00022 s⁻¹ | – | 3.87e-05 ± 1.3e-05 s⁻¹ | 0.00013 ± 1.9e-05 s⁻¹ | – | – | –
23 | U30G A52U | 6.83e-05 ± 9.4e-06 s⁻¹ | – | 4.14e-05 ± 1.5e-05 s⁻¹ | 5.6e-05 ± 1e-05 s⁻¹ | – | – | –
24 | U30G A52G | 0.000498 ± 6.7e-05 s⁻¹ | 9.63e-05 ± 1.4e-05 s⁻¹ | 0.00033 ± 5.9e-05 s⁻¹ | 0.000388 ± 4.4e-05 s⁻¹ | 2430 ± 620 µM | – | 4.03e-05 ± 2e-05 s⁻¹
25 | U31A G32U | 0.00113 ± 0.00055 s⁻¹ | 6.96e-05 ± 1.7e-05 s⁻¹ | 0.000256 ± 4.4e-05 s⁻¹ | 0.0006 ± 0.00016 s⁻¹ | – | – | 4.59e-05 ± 2e-05 s⁻¹
26 | U31A G32A | 0.00184 ± 0.00083 s⁻¹ | 0.000222 ± 3.2e-05 s⁻¹ | 0.000381 ± 7.7e-05 s⁻¹ | 0.0014 ± 0.00017 s⁻¹ | – | – | 6.66e-05 ± 1.2e-05 s⁻¹
27 | U31A C67U | 0.00291 ± 0.0011 s⁻¹ | 0.00143 ± 0.00019 s⁻¹ | 0.00135 ± 0.00029 s⁻¹ | 0.00427 ± 0.00063 s⁻¹ | – | 0.000116 ± 1.4e-05 s⁻¹ | 0.000324 ± 8.8e-05 s⁻¹
28 | G29U G37A | 0.000503 ± 4.3e-05 s⁻¹ | 8.23e-05 ± 1.1e-05 s⁻¹ | 0.000188 ± 3.4e-05 s⁻¹ | 0.000383 ± 4.6e-05 s⁻¹ | 3470 ± 490 µM | – | –
29 | G29U G32U | 0.00125 ± 0.00041 s⁻¹ | 0.00011 ± 1.5e-05 s⁻¹ | 0.000243 ± 3e-05 s⁻¹ | 0.000702 ± 7.1e-05 s⁻¹ | 8560 ± 4000 µM | – | –
30 | G29U G32C | 0.000123 ± 3.9e-06 s⁻¹ | – | 5.78e-05 ± 8.5e-06 s⁻¹ | 9.71e-05 ± 8.4e-06 s⁻¹ | 2730 ± 250 µM | < 1e-05 s⁻¹ | –
31 | G29U C50A G66U | 1.4e-05 ± 4.4e-06 s⁻¹ | – | – | – | – | – | –
32 | U30A U65C | 0.000105 ± 8e-06 s⁻¹ | – | 4.68e-05 ± 1.5e-05 s⁻¹ | 8.23e-05 ± 1.6e-05 s⁻¹ | 2860 ± 590 µM | – | –
33 | U30A U65G | 0.00214 ± 0.00022 s⁻¹ | 0.000275 ± 8.9e-05 s⁻¹ | 0.000614 ± 0.00016 s⁻¹ | 0.00141 ± 0.00016 s⁻¹ | 5250 ± 1000 µM | – | 6.8e-05 ± 2.4e-05 s⁻¹
